Measured values reported in US20110286916A1 (published 2011).
Like-named read-outs stand apart in the source and are kept apart here.

Tests used:
[1] = target: T1, human Notch3-Gal4 chimeric receptor on U2OS FlpIn TREx cells (human, UniProt Q9UM47 40-2321); experiment: cell-based or functional assay
[2] = target: T2, human full-length Notch1 with C-terminal FLAG tag, stably expressed on 293 FlpIn (TREx) cells (human, UniProt P46531 19-2555); experiment: FACS, hN1 293 cells, MFI grade (++ 101-500)
T2 construct: tetracycline/doxycycline-induced expression from pcDNA5/FRT/TO-HN1+FLAG; also called hN1; 293_N1
Procedure: Notch 293 FlpIn (TREx) cells were treated with dox (2 ug/ml) for two days to induce Notch expression before collecting them for FACS surface expression analysis. The cells were harvested from tissue culture flasks using Trypsin for 15 min, centrifuged at 1200 rpm for 10 minutes and resuspended in 2 ml PBS with 2% fetal bovine serum (2% FBS/PBS). The cells were counted, adjusted to 10⁷ cells/ml and 0.1 ml of cells was incubated with 1 ug of each Mab for 40 minutes at 4° C. The cells were washed, resuspended in 0.1 ml 2% FBS/PBS and incubated with 1 ug R-PE-conjugated goat anti-human Ig (Jackson ImmunoResearch) for 30 minutes at 4° C. Cells were washed, resuspended in 0.3 ml PBS with 10% formaldehyde and analyzed on a FACSCalibur (Becton Dickinson, Mt View, Calif.).

[3] = target: T3, Notch1 extracellular fragment (amino acid 19-526) Fc fusion protein, R&D Systems 3647-TK (human, UniProt P46531 19-526); experiment: BIAcore SPR, Notch1/Fc on CM5, Mab analyte, 1:1 binding
T3 construct: bought protein; also called Notch1/Fc; Notch1-ECD Fc fusion protein; not shown: Fc of the bought fusion protein
Procedure: All experiments were performed at 25° C. at a flow rate of 40 μl/min. […] FC1 was used as the reference cell. Specific signals were the results of differences of signals obtained on FC2 versus FC1. […] The dissociation phase of the analyte was monitored over a period of time ranging 10-30 minutes. Running buffer was also injected under the same conditions as a reference.
Equilibrium dissociation constant (KD) was calculated by the ratio between dissociation (koff) and association (kon) rate constants.

[4] = target: T1, human Notch3-Gal4 chimeric receptor on …; experiment: cell-based or functional assay; remark: listed apart in the source

| Binder | hN3, inhibition of Luc activity at [166 nM] Mab [1] | MFI [2] | Kd [3] | koff [3] | kon [3] | hN3, inhibition of Luc activity at [166 nM] Mab [4] |
| --- | --- | --- | --- | --- | --- | --- |
| WC-75 (antibody, human IgG1, lambda, V domains shown) VH: GVQLVQSGGGLVQPGGSLRLSCAASGFTFDDYAMHWVRQAPGKGLEWVSSISWHSRTIAYADSVKGRFSISRDNAKNSLYLQMNSLRPEDTAVYYCAKASYLSTSSSLDYWGRGTLVTVSS VL: QSVLTQPGSVSGSPGQSITISCTGTSSDVGGYNYVSWYQQHPGKAPKLMIYEGSKRPSGVSNRFSGSKSGNTASLTISGLQAEDEADYYCSSYTTRSTRVFGGGTKLTVLQ | < 10% |  |  |  |  |  |
| WC-613 (antibody, human IgG1, lambda, V domains shown, also called N1wc613; hN1wc-613) VH: not shown VL: SYELTQPPSASGTPGQRVTISCSGSYSNIGSNYVYWYQQLPGTAPKLLIYTNNQRPSGVPDRFSGSKSGTSASLVISGLRSDDEGDYYCAAWDDSVSVLLFGGGTKVTVLQ | < 10% | 101 to 500 mfi | 1.09 nM | 0.000258 s⁻¹ | 237000 M⁻¹ s⁻¹ |  |
| FL-SKNAS-C2-384 (antibody, human IgG1, lambda, V domains shown) VH: EVQLVQSGAEVKKPGSSVKVSCKASGGTLSSSAISWVRQAPGEGLEWMGGIIPMFDSTNYAQKFQGRVTITADESTSTAFMELSSLRSDDTAVYYCGRDPYYDRLSGGGYMDVWGQGTLVTVSS VL: SYVLTQPPSVSGALRQTATVTCTGNSSNVGNQGAAWLRQHQGRPPKLLSYRNNDRPSGVSQRFSASTSGNTASLTITGLQSEDEADYFCSAWDSSRSGWVFGGGTKLTVLG |  |  |  |  |  | < 5% |
| A673-C2-110 (antibody, human IgG1, lambda, V domains shown) VH: QVQLVQSGTEVKKPGASVRVSCKPSADTFTSYYVHWVRQAPGQGLEWMGTINPTGTYTRYAQQFQGRVTVTRDTSTSSVYMELSSLRSEDSAVYYCARDVRPYTAMYSFDNWGRGTTVTVSS VL: SYVLTQPPSVSVSPGQTATITCSGDALPKQYANWYQQKPGQAPVLMIYKDSDRPSGIPERFSGSSSGTKATLTISGVQAEDEADYYCQSADNSGTNYVFGTGTKLTVLG |  |  |  |  |  | < 10% |
| WC-629 (antibody, human IgG1, lambda, V domains shown) VH: EVQLVQSGAEVKKPGSSVKVSCKASGGTLSSYTVSWLRQAPGQGLEWMGRIIPILDRANYAQKFQGRVTITADKSTSTAYMELNSLRSDDTAVYYCARSIGAAGDGVWFDPWGQGTMVTVSS VL: QAVLTQPSSVSGAPGQRVTISCTGSSSNIGAGYDVHWYQQLPGTAPKLLIFDNKNRPSGVPDRFSGSNSGTSASLAITGLQAEDEAEYYCQSYDNNLSGRVFGGGTKLTVLQ | < 10% |  |  |  |  |  |
| S3-009 (antibody, human IgG1, lambda, V domains shown, also called hN1S3-009; HN1S3-9) VH: EVQLVQSGAEVKKPGASVKVSCKASGYNFTGYYMHWVRQAPGQGLEWMGWINPNSGGTNYAQKFQGRVTMTRDTSISTAYMELSRLRSDDTAVYYCATDSFDYWGQGTMVTVSS VL: SYVLTQPPSVSEAPRQRVTISCSGSSSNIGNNAVSWYQQLPGKAPKTLIYYDDLLSSGVSDRFSGSRSGTSASLAISGLQSEDEADYYCAAWDDSLNGVVFGGGTKLTVLQ | < 20% | 101 to 500 mfi | 5.23 nM | 0.00268 s⁻¹ | 513000 M⁻¹ s⁻¹ |  |
| S3-094 (antibody, human IgG1, lambda, V domains shown, also called hN1S3-094; HN1S3-94) VH: EVQLVQSGAEVKKPGASVKVSCKASGYNFTGYYMHWVRQAPGQGLEWMGWINPNSGGTNYAQKFQGRVTMTRDTSISTAYMELSRLRSDDTAVYYCATDSFDYWGRGTMVTVSS VL: QSVLTQPPSASGTPGQRVTISCSGGSSNIGSNTVTWYQQLPGKAPKLLIYISDQRPSGVPDRFSGSKSGTSASLAIRGLQSEDEADYYCAAWDDSLNGAVFGTGTKVTVLQ | < 10% | 101 to 500 mfi | 3.89 nM | 0.00163 s⁻¹ | 420000 M⁻¹ s⁻¹ |  |
| S3-011 (antibody, human IgG1, lambda, V domains shown, also called hN1S3-011) VH: QVQLVQSGPEVKKPGASVKVSCKASGYNFTGYYMHWVRQAPGQGLEWMGWINPNSGGTNYAQKFQGRVTMTRDTSISTAYMELSRLRSDDTAVYYCATDSFDYWGRGTMVTVSS VL: not shown | < 10% | 101 to 500 mfi |  |  |  |  |
